Bridges are numbered along the chain shown (N, C = ends). Where no end group is shown, it is not given here.
Experiments:
[1] = target: T1, MDM2 (UniProt Q00987 1-491); experiment: fluorescence polarisation; competition assay on MDM2 (reported assay, ref. 17); peptides purified by HPLC to >95%; tracer not named; settings: both partners purified
T1 construct: MDM2, the protein target of pb13

[2] = target: T2, streptavidin (UniProt P22629 25-183); experiment: SPR; binding of peptide to streptavidin; settings: both partners purified
T2 construct: streptavidin, model target; Source may be told in the ESI
T2 sequence (P22629 25-183): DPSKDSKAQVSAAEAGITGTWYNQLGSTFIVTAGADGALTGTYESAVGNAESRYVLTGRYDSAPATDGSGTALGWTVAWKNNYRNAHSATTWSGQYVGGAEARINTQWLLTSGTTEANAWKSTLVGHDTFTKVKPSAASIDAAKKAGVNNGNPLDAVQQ

T1 sequence (Q00987 whole entry): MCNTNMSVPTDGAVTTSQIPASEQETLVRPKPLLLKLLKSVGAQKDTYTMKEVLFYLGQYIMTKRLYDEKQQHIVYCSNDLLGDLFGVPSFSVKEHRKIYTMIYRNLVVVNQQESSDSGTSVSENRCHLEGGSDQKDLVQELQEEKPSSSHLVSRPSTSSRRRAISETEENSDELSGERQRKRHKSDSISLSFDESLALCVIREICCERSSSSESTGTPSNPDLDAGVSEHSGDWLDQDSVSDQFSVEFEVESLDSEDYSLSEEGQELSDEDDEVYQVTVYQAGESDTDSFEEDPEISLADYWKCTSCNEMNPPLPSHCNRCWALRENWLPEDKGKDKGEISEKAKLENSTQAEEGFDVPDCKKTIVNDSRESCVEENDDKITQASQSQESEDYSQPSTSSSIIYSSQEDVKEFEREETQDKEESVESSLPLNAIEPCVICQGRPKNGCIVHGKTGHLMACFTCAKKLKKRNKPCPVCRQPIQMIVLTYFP

Binder | Ki [1] [nM] | Kd [2] [nM]
GCEKATESESPCPCIFPELCPWIVCC (disulfide 12-25, 14-20, 2-26) [oxidized peptide 15] | 89 | 
GCGSDEACFCPCSHPENCPMAQHC (disulfide (positions not given here)) [tricyclic peptide 17] |  | 38

Reference: PMC8409457, “An evolution-inspired strategy to design disulfide-rich peptides tolerant to extensive sequence manipulation†” (Chemical Science, 2021)
